This assay addresses T1, Human TIM-3 Human Fc tagged protein (human, fluorescently labeled with HiLyte Fluor 555 (sites not given)).
T1 construct: Bought construct; also called TIM-3 protein tagged with human Fc; ACROBiosystems catalog no: TM3-H5258
In words: capture slide probed with labeled TIM-3-Fc.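 Note: IgG from single CD138-enriched plasma cells, isolated from lymphocytes, immobilized on a derivatized glass slide.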

B1: SCT-Fa020 (antibody, V domains shown)
VH: EVQLHQSGPELVKPGASVKMSCKASGYTFTDYNMHWVKQSHGKSLEWIGYINPNNGGIIYNQNFKGKATLTVNKSSTTAYMELRSLTSEDSAVYYCVGSLDYWGQGTTLTVSS
VL: DIQMTQTTSSLSASLGDRVTISCRASQDINNYLNWYQQKPDETVKLLIYYTSRLHSGVPSRFSGSGSGTDYSLTISNLDQEDFATYFCQQGYMLPLTFDAGTKLELK
notes: murine IgG
For B1, the binding result is reported as “binds”.

B2: SCT-Fa181 (antibody, V domains shown)
VH: QVQLQQSGAELVRPGTSVKVSCKASGYAFTNYLIEWVKQRPGQGLEWIGVINPGSGATNYNEKFKGKATLTADKSSSTAYMQLRSLASEDSAVYFCARRTTVVAPYAMDYWGQGTSVTVSS
VL: DIQMTQTTSSLSASLGDRVTISCRASQDISNYLNWYQQKPDGTVELLIYYTSRLHSGVPSRFSGSGSGTDYSLTISNLEQEDIATYFCQQGNTLPRTFGGGTKLEIK
notes: murine IgG
On to B2, for which the binding result was “binds”.

B3: SCT-Fa007 (antibody, V domains shown)
VH: EVKLVESEGGLVHPGSSMKLSCTASGFTFSDYYMAWVRQVPEKGLEWIANINFDGSGTYYLDSLKSRFIISRDNGKNILYLQMSGLKSEDTATYYCARLYDGYYAYWGQGTTLTVSS
VL: DVVMTQTPLSLPVSLGDQASISCRSSQSLVHSNGNTYLYWYLQKPGQSPKLLIYKVSNRFSGVPDRFSGSGSGTDFTLKISRVEAEDLGVYFCSQSTHVPLTFGAGTKLELK
notes: murine IgG
As to B3, the binding result was “binds”.

B4: SCT-Fa018 (antibody, V domains shown)
VH: EVKLVESEGGLVQPGSSMKLSCTASGFTFSDYYMAWVRQVPEKGLEWVANINFDGSSSYYLDSLKSRFIISRDNTKNILYLQMSSLKSEDTATYYCARLYDGYYAYWGQGTTLTVSS
VL: DVVMTQTPLSLPVSLGDQASISCRSSQSLIHSNGNTYLYWYLQKPGQSPTLLIYKVSNRFSGVPDRFSGSGSGTDFTLKISRVEAEDLGVYFCSQSTHVPLTFGAGSKLELK
notes: murine IgG
Regarding B4, the binding result is given as “binds”.

B5: SCT-Fa008 (antibody, V domains shown)
VH: EVKLVESEGGLVQLGSSMKLSCTASGFTFSDYYMAWVRQVPEKGLEWIANINFDGSGTYYLDSLKSRFIISRDNGKNILYLQMSGLKSEDTATYYCARLYDGYYAYWGQGTTLTVSS
VL: DVVVTQTPLSLPVSLGDQASISCRSSQSLVHSNGNTYLYWYLQKPGQSPKLLIYKVSNRFSGVPDRFSGSGSGTDFTLKISRVEAEDLGVYFCSQSTHVPLTFGAGTKLELK
notes: murine IgG
As to B5, the binding result is recorded as “binds”.

B6: SCT-Fa002 (antibody, V domains shown)
VH: EFQLQQSGPELVKPGASVKISCKASGYSFTDYNMNWVKQSNGKSLEWIGVNNPKYGTTTYNQKFKGKATLTVDQSSSTAYMQLNSLTSEDSAVYYCARRGYYYGSSYGYFDVWGTGTTVTVSS
VL: DILMTQSPSSMSVSLGDRVSIICHASQDIRSNIGWLQQKPGKSLKGLIYHGTNLEDGVPSRFSGSGSGADYSLTISSLESEDFADYYCVQYVQFPRTFGGGTKLEIK
notes: murine IgG
For B6, the binding result is on record as “binds”.

B7: SCT-Fa195 (antibody, V domains shown)
VH: QVQLRQSGAELVRPGTSVKLSCKASGYTLTDYYINWVKQRPGQGLEWIARIYPGNGNTYYNEKFKGKATLTAEKSSSTVNMQVSSLTSEDSAVYFCARGGSSDRIYYYAMDYWGQGTSVTVSS
VL: DIQVTQSSPFLSVSLGGRVIISCKASDHINNWLAWYQQKPGNAPRLLISGAINLETGVPSRFSGSGSGKDYTLSISSLQTEDVATYYCQQYWNTPYTFGGGTKLEIK
notes: murine IgG
Regarding B7, the binding result is recorded as “binds”.

B8: SCT-Fa186 (antibody, V domains shown)
VH: QVQLQQSGPELARPGASVKLSCKASGYTFRSNGISWVKQRTGQGLEWIGEIYPRSGNIYYNEKVKDKATLTADKSSNTAYMAVRSLTSEDSAVYFCARSTTVVAGGFDFWGQGTVLTVSS
VL: DIVMTQSPSSLTVTAGEKVTMSCKSSQSLLNSRTQKNSLTWYQQKPGQPPKLLIYWASTRESGVPDRFTGSGSGTDFTLTISSVQAEDLAIYYCQNDYTYPWTFGGGTELEIK
notes: murine IgG
Regarding B8, the binding result is listed as “binds”.

B9: SCT-Fa193 (antibody, V domains shown)
VH: QVQLRQSGAELARPGASVKLSCKASGYTFTSYGITWVKQRTGQGLEWIGEIYPRSGNIYYNEKFKGKVTLTADKSSSTAYMELRSLTSEDSAVYFCARSTAVVAGGFDYWGQGTTLTVSS
VL: DVVMTQSPSSLTVTTGERVTVNCKSSQSLLNSRIQKNSLTWYQQKPGQPPKLLIYWASTRESGVPDRFTGSGSGTDFTLTISSVQAEDLAIYYCQNDYNYPWTFGGGTKLEIK
notes: murine IgG
Turning to B9, the binding result is reported as “binds”.

B10: SCT-Fa192 (antibody, V domains shown)
VH: QVQLRQSGAELARPGASVKLSCKASGYTFTNYGITWVKQRTGQGLEWIGEIYPRSGNIYYNEKFKGKVTLTADKSSSTAYMELRSLTSEDSAVYFCARSTAVVAGGFDYWGQGTTLTVSS
VL: DIVMTQSPSSLTVTTGEKVTVNCKSSQSLLNSRIQKNSLTWYQQKPGQPPKLLIFWASTRESGVPDRFTGSESGTDFTLTISSVQAEDLAIYYCQNDYNYPWTFGGGTKLEIK
notes: murine IgG
Take B10: the binding result is reported as “binds”.

B11: SCT-Fa022 (antibody, V domains shown)
VH: EVQLQQPGAELVKPGASVKLSCKASGYTFTSYWIHWVKQRPGRGLEWIGRIDPNSGGTKYNEKFKSKATLTVDKPSSTAYMQLSSLTSEDSAVYYCTKDGNTPYYAMDYWGQGTSVTVSS
VL: SIVMTQTPKFLLVSAGDRVTITCKASQSVSNAVAWYQQKPGQSPKLLIYYASNRYTGVPDRFTGSGYGTDFTFTISTVQAEDLAVYFCQQDYSSPLTFGAGTKLELK
notes: murine IgG
With B11, the binding result is listed as “binds”.

B12: SCT-Fa182 (antibody, V domains shown)
VH: QVQLQQSGAELVRPGTSVKVSCKASGYAFTNYLIEWVKQRPGQGLEWIGVISPGSGATTYNEKFKGKATLTADRSSTTAYMQLSSLTSEDSAVYFCARSAYGSPLDFWGQGTTLTVSS
VL: DIKMTQSPSSMYASLGERVTITCKASQDINRYLSWFQQKPGKSPKTLIYRVNRLVDGVPLRFSGSGSGQDYSLTISSLDYEDMGIYYCQQYDEFPYTFGGGTKLEIK
notes: murine IgG
Take B12: the binding result is reported as “binds”.

B13: SCT-Fa183 (antibody, V domains shown)
VH: QVQLQQSGAELVRPGTSVKVSCKASGYAFTNYLIEWVKQRPGQGLEWIGVISPGSGATTYNEKFKGKATLTADRSSTTAYMQLSSLTSEDSAVYFCARSAYGSPLDFWGQGTTLTVSS
VL: DILLTQSPDILSVSPGERVSFSCRASQNIGTSIHWYQQRTNGSPRLLIKYASESISGISSRFSGSGSGTDFTLSINSVESEDIADYYCQQSNNWPFTFGSGTKLEIK
notes: murine IgG
With B13, the binding result is listed as “binds”.

B14: SCT-Fa184 (antibody, V domains shown)
VH: QVQLQQSGAELVRPGTSVKVSCKASGYAFTNYLIEWVKQRPGQGLEWIGVISPGSGGTTYNEKFKGKATLTADKSSSTAYMQFSSLTSEDSAVYFCARSAYGHVFDYWGQGTTLTVSS
VL: DIKMTQSPSSIYASLGERVTITCKASQDINSYLKWFQQKPGKSPKTLIYRANRLVDGVPSRFSGSGSGQDYSLTISSLEYEDMGIYYCLQYDEFPYTFGGGTKLEIK
notes: murine IgG
Consider B14, for which the binding result is on record as “binds”.

B15: SCT-Fa185 (antibody, V domains shown)
VH: QVQLQQSGAELVRPGTSVRVSCTASGYAFTNYLIEWVKQRPGQGLEWIGVISPGSGGTTYNEKFKGKATLTADKSSSTAYMQFSSLTSEDSAVYFCARSAYGHVFDYWGQGTTLTVSS
VL: DIKMTQSPSSMYASLGERVTITCKASQDINSYLKWFQQKPGKSPKTLIYRANRLVDGVPSRFSGSGSGQDYSLTISSLEYEDMGIYYCLQYDEFPYTFGGGTKLEIK
notes: murine IgG
For B15, the binding result is given as “binds”.

(Values after US20230279105A1 (SINGLE CELL TECHNOLOGY, published 2023).)
